What was measured:
Assay in all cases: fluorescence anisotropy direct titration; 25 mM sodium phosphate (purification buffer pH 7.2), 225 mM NaCl, 10% v/v glycerol, 5 mM DTT, 0.2 mg/mL BSA, 22 C
Settings in all cases: protein: recombinant; tags: N-terminal 6xHis-lipoyl-TEV tag, cleaved; chain copies: 4; label: 5'-Alexa488
[1] = biological target: T1, ΔNp63γ (Homo sapiens, UniProt Q9H3D4-6 1-393)
T1 sequence: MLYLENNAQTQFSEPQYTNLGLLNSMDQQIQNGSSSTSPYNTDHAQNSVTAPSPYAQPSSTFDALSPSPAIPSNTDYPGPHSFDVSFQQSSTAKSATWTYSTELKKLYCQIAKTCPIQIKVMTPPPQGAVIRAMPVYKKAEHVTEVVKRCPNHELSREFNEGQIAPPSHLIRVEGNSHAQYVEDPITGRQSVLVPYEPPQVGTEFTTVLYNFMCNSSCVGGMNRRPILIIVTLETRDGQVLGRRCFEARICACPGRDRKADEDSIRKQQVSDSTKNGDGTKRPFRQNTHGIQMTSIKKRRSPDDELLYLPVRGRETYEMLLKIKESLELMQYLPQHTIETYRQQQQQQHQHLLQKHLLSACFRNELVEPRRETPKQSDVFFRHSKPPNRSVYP

[2] = biological target: T2, ΔNp63α (Homo sapiens, UniProt Q9H3D4-2 1-586)
T2 sequence: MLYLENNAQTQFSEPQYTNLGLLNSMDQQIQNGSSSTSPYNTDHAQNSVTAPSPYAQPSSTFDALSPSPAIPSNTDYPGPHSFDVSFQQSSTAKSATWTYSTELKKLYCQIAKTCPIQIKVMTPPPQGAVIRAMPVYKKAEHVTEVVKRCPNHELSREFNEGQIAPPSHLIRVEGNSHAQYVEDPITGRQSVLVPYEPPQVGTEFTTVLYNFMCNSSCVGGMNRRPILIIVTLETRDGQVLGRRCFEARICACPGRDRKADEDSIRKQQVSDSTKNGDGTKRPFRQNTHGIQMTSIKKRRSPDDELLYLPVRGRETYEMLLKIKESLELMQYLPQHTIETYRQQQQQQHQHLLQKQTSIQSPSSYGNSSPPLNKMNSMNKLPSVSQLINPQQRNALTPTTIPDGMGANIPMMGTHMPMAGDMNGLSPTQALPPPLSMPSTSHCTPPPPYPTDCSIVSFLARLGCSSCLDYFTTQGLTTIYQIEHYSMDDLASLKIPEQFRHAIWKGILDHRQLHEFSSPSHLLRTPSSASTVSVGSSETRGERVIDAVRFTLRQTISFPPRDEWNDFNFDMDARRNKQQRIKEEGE

[3] = biological target: T3, ΔNp73β (Homo sapiens, UniProt O15350-9 1-450)
T3 sequence: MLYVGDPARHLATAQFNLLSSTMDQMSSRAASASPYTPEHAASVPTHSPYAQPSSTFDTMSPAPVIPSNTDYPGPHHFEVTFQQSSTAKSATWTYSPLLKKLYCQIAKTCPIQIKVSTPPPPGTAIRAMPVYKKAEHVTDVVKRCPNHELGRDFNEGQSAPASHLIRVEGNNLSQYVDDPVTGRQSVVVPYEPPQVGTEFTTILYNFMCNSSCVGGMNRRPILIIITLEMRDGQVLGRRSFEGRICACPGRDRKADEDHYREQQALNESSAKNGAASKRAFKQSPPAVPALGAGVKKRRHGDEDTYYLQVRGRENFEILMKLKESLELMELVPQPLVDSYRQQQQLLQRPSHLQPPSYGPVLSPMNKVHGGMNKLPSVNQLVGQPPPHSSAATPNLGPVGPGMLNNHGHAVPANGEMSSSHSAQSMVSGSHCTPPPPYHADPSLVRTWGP

[4] = biological target: T4, p73CT (Homo sapiens, UniProt O15350 104-383)
T4 sequence: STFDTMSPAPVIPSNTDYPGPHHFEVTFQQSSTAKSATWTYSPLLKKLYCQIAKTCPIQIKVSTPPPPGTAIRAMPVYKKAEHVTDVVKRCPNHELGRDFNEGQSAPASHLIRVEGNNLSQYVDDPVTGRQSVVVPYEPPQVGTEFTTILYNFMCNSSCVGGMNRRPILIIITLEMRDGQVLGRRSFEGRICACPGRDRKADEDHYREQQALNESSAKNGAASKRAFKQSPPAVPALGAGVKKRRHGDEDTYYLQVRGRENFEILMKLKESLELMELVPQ

[5] = biological target: T5, Dmp53 (Drosophila melanogaster, UniProt Q9N6D8 1-385)
T5 sequence: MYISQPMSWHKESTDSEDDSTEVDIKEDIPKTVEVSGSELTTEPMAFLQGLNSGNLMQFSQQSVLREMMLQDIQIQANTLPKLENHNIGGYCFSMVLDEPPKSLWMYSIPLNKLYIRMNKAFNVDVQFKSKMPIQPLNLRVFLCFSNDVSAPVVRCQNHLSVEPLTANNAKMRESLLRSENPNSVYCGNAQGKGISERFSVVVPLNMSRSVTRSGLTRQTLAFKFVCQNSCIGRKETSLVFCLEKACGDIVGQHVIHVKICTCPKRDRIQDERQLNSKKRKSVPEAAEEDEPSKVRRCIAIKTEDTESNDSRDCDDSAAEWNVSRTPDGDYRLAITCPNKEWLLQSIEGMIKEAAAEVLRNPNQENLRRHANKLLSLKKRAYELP

[6] = biological target: Mmp53 (Mus musculus, UniProt P02340 1-390)
Sequence of Mmp53 (P02340 whole entry): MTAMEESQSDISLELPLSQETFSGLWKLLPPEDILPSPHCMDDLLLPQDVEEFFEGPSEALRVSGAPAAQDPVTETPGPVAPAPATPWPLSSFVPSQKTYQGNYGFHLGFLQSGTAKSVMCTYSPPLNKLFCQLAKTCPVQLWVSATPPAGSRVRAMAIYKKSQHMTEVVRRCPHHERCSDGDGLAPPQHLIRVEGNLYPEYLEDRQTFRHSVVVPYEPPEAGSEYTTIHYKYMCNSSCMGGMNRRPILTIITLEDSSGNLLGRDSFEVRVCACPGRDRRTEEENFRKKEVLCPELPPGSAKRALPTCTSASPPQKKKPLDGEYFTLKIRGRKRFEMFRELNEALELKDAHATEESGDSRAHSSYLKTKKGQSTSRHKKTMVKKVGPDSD

B1: Ref_Alexa488 (dsDNA)
DNA 1: GGACATGTCCGGACATGTCC
DNA 2: GGACATGTCCGGACATGTCC
- Kd [1]: 67.6 nM
- Kd [2]: 75.9 nM
- Kd [3]: 55 nM
- Kd [4]: 240 nM
- Kd [5]: 52.5 nM
- Kd [6]: 95.5 nM

From article PMC2807882, “Conservation of DNA-binding specificity and oligomerisation properties within the p53 family”
